Holding throughout (test): Biacore off-rate vs wt GC1008, 50 nM
The target of assay [1] is T1, human TGFβ1 (human, UniProt P01137 279-390).
T1 construct: also called TGFβ1 homodimer
The text has this: (§1) Plasmids encoding either the GC1008 heavy chain or light chain were used as a template in PCR-based mutagenesis reactions. Mutations to the encoding DNA were made to create 155 single amino acid substitutions of the encoded heavy chain amino acid sequence and one single amino acid substitution of the encoded light chain amino acid sequence. A QuikChange® Lightning Site-Directed Mutagenesis kit (Agilent Technologies, Santa Clara Calif.) was used according to the manufacturer's instructions to create DNA mutations using a set of forward and reverse primers, either designed for a specific amino acid or for all 20 amino acids with a degenerate codon (NNK). After sequencing confirmation, identified mutant DNA was paired with a wild-type light or heavy chain DNA for transfection into an Expi293F™ host cell suspension (Life Techonologies Corp., Grand Island, N.Y.). At 4 days post-transfection, conditioned media (1 mL) was harvested and purified using a 1 mL Protein A PhyTip® column (PhyNexus, Inc., San Jose, Calif.) and a PureSpeed™ 12-channel pipette (Rainin Instrument LLC, Oakland, Calif.). Purified variant antibody samples were analyzed in duplicate on a Biacore® 3000 (GE Healthcare) at 50 nM concentrations, using the 100 RU level TGFβ1, 2, and 3 immobilized surfaces. The off-rate (kd) of the variants was divided by the kd of the wild-type control to obtain the fold change in the kd. […] A heat map was generated to visualize the results. Variants that completely lost affinity for TGFβ were shown in red without numbers.

Assay [2] has as its target T2, human TGFβ2 (human, UniProt P61812 303-414).
T2 construct: also called TGFβ2 homodimer
T2 sequence: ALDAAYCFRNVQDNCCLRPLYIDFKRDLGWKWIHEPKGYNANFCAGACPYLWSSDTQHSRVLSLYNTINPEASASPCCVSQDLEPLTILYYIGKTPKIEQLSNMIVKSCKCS
Description: as §1

Assay [3] concerns the target T3, human TGFβ3 (human, UniProt P10600 301-412).
T3 sequence: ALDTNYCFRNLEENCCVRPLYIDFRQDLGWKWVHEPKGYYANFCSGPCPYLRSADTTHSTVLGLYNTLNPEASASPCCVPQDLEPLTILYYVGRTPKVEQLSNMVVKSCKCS
Description: as §1

T1 sequence (P01137 279-390 limits assumed): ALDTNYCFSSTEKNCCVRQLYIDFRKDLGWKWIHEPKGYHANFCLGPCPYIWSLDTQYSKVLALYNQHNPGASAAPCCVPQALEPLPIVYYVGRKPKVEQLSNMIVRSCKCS

B1: D56C (antibody, V domains shown)
VH: QVQLVQSGAEVKKPGSSVKVSCKASGYTFSSNVISWVRQAPGQGLEWMGGVIPIVCIANYAQRFKGRVTITADESTSTTYMELSSLRSEDTAVYYCASTLGLVLDAMDYWGQGTLVTVSS
VL: ETVLTQSPGTLSLSPGERATLSCRASQSLGSSYLAWYQQKPGQAPRLLIYGASSRAPGIPDRFSGSGSGTDFTLTISRLEPEDFAVYYCQQYADSPITFGQGTRLEIK
notes: GC1008 IgG4 variant
On to B1, for which the kd var/kd wt in assay [1] amounted to 1.1; in assay [2] it was 1.3; in assay [3], 0.8.

B2: V55L (antibody, V domains shown)
VH: QVQLVQSGAEVKKPGSSVKVSCKASGYTFSSNVISWVRQAPGQGLEWMGGVIPILDIANYAQRFKGRVTITADESTSTTYMELSSLRSEDTAVYYCASTLGLVLDAMDYWGQGTLVTVSS
VL: ETVLTQSPGTLSLSPGERATLSCRASQSLGSSYLAWYQQKPGQAPRLLIYGASSRAPGIPDRFSGSGSGTDFTLTISRLEPEDFAVYYCQQYADSPITFGQGTRLEIK
notes: GC1008 IgG4 variant
For the molecule B2, the kd var/kd wt in assay [2] came out at 1.6; in assay [3] it was 1.8.

B3: V55A (antibody, V domains shown)
VH: QVQLVQSGAEVKKPGSSVKVSCKASGYTFSSNVISWVRQAPGQGLEWMGGVIPIADIANYAQRFKGRVTITADESTSTTYMELSSLRSEDTAVYYCASTLGLVLDAMDYWGQGTLVTVSS
VL: ETVLTQSPGTLSLSPGERATLSCRASQSLGSSYLAWYQQKPGQAPRLLIYGASSRAPGIPDRFSGSGSGTDFTLTISRLEPEDFAVYYCQQYADSPITFGQGTRLEIK
notes: GC1008 IgG4 variant
As for B3, the values for the kd var/kd wt in assay [2] and in assay [3] were 1.7 and 2, respectively.

B4: I52T (antibody, V domains shown)
VH: QVQLVQSGAEVKKPGSSVKVSCKASGYTFSSNVISWVRQAPGQGLEWMGGVTPIVDIANYAQRFKGRVTITADESTSTTYMELSSLRSEDTAVYYCASTLGLVLDAMDYWGQGTLVTVSS
VL: ETVLTQSPGTLSLSPGERATLSCRASQSLGSSYLAWYQQKPGQAPRLLIYGASSRAPGIPDRFSGSGSGTDFTLTISRLEPEDFAVYYCQQYADSPITFGQGTRLEIK
notes: GC1008 IgG4 variant
B4: the results for the kd var/kd wt in assay [2] and in assay [3] were 1.9 and 2.1, respectively.

B5: S30K (antibody, V domains shown)
VH: QVQLVQSGAEVKKPGSSVKVSCKASGYTFKSNVISWVRQAPGQGLEWMGGVIPIVDIANYAQRFKGRVTITADESTSTTYMELSSLRSEDTAVYYCASTLGLVLDAMDYWGQGTLVTVSS
VL: ETVLTQSPGTLSLSPGERATLSCRASQSLGSSYLAWYQQKPGQAPRLLIYGASSRAPGIPDRFSGSGSGTDFTLTISRLEPEDFAVYYCQQYADSPITFGQGTRLEIK
notes: GC1008 IgG4 variant
Consider B5, for which the kd var/kd wt worked out at 1.5 in assay [2] and 1.6 in assay [3].

B6: D56E (antibody, V domains shown)
VH: QVQLVQSGAEVKKPGSSVKVSCKASGYTFSSNVISWVRQAPGQGLEWMGGVIPIVEIANYAQRFKGRVTITADESTSTTYMELSSLRSEDTAVYYCASTLGLVLDAMDYWGQGTLVTVSS
VL: ETVLTQSPGTLSLSPGERATLSCRASQSLGSSYLAWYQQKPGQAPRLLIYGASSRAPGIPDRFSGSGSGTDFTLTISRLEPEDFAVYYCQQYADSPITFGQGTRLEIK
notes: GC1008 IgG4 variant
As for B6, the results for the kd var/kd wt in assay [1], in assay [2] and in assay [3] were 1, 1.2 and 0.9, respectively.

B7: I54Y (antibody, V domains shown)
VH: QVQLVQSGAEVKKPGSSVKVSCKASGYTFSSNVISWVRQAPGQGLEWMGGVIPYVDIANYAQRFKGRVTITADESTSTTYMELSSLRSEDTAVYYCASTLGLVLDAMDYWGQGTLVTVSS
VL: ETVLTQSPGTLSLSPGERATLSCRASQSLGSSYLAWYQQKPGQAPRLLIYGASSRAPGIPDRFSGSGSGTDFTLTISRLEPEDFAVYYCQQYADSPITFGQGTRLEIK
notes: GC1008 IgG4 variant
Take B7: the kd var/kd wt in assay [2] was found to be 1.3; in assay [3] it was 1.5.

B8: D56L (antibody, V domains shown)
VH: QVQLVQSGAEVKKPGSSVKVSCKASGYTFSSNVISWVRQAPGQGLEWMGGVIPIVLIANYAQRFKGRVTITADESTSTTYMELSSLRSEDTAVYYCASTLGLVLDAMDYWGQGTLVTVSS
VL: ETVLTQSPGTLSLSPGERATLSCRASQSLGSSYLAWYQQKPGQAPRLLIYGASSRAPGIPDRFSGSGSGTDFTLTISRLEPEDFAVYYCQQYADSPITFGQGTRLEIK
notes: GC1008 IgG4 variant
For the molecule B8, the kd var/kd wt came to 1.3 in assay [1], 1.4 in assay [2] and 1 in assay [3].

B9: D56H (antibody, V domains shown)
VH: QVQLVQSGAEVKKPGSSVKVSCKASGYTFSSNVISWVRQAPGQGLEWMGGVIPIVHIANYAQRFKGRVTITADESTSTTYMELSSLRSEDTAVYYCASTLGLVLDAMDYWGQGTLVTVSS
VL: ETVLTQSPGTLSLSPGERATLSCRASQSLGSSYLAWYQQKPGQAPRLLIYGASSRAPGIPDRFSGSGSGTDFTLTISRLEPEDFAVYYCQQYADSPITFGQGTRLEIK
notes: GC1008 IgG4 variant
With B9, the kd var/kd wt worked out at 1.1 in assay [1], 1.3 in assay [2] and 0.7 in assay [3].

B10: D56I (antibody, V domains shown)
VH: QVQLVQSGAEVKKPGSSVKVSCKASGYTFSSNVISWVRQAPGQGLEWMGGVIPIVIIANYAQRFKGRVTITADESTSTTYMELSSLRSEDTAVYYCASTLGLVLDAMDYWGQGTLVTVSS
VL: ETVLTQSPGTLSLSPGERATLSCRASQSLGSSYLAWYQQKPGQAPRLLIYGASSRAPGIPDRFSGSGSGTDFTLTISRLEPEDFAVYYCQQYADSPITFGQGTRLEIK
notes: GC1008 IgG4 variant
Turning to B10, the results for the kd var/kd wt in assay [1], in assay [2] and in assay [3] were 1.6, 1.5 and 1.4, respectively.

B11: I52F (antibody, V domains shown)
VH: QVQLVQSGAEVKKPGSSVKVSCKASGYTFSSNVISWVRQAPGQGLEWMGGVFPIVDIANYAQRFKGRVTITADESTSTTYMELSSLRSEDTAVYYCASTLGLVLDAMDYWGQGTLVTVSS
VL: ETVLTQSPGTLSLSPGERATLSCRASQSLGSSYLAWYQQKPGQAPRLLIYGASSRAPGIPDRFSGSGSGTDFTLTISRLEPEDFAVYYCQQYADSPITFGQGTRLEIK
notes: GC1008 IgG4 variant
With B11, the kd var/kd wt in assay [2] came out at 1.9; in assay [3] it was 2.

B12: V55I (antibody, V domains shown)
VH: QVQLVQSGAEVKKPGSSVKVSCKASGYTFSSNVISWVRQAPGQGLEWMGGVIPIIDIANYAQRFKGRVTITADESTSTTYMELSSLRSEDTAVYYCASTLGLVLDAMDYWGQGTLVTVSS
VL: ETVLTQSPGTLSLSPGERATLSCRASQSLGSSYLAWYQQKPGQAPRLLIYGASSRAPGIPDRFSGSGSGTDFTLTISRLEPEDFAVYYCQQYADSPITFGQGTRLEIK
notes: GC1008 IgG4 variant
In the case of B12, the results for the kd var/kd wt in assay [2] and in assay [3] were 1.7 and 1.8, respectively.

B13: D56G (antibody, V domains shown)
VH: QVQLVQSGAEVKKPGSSVKVSCKASGYTFSSNVISWVRQAPGQGLEWMGGVIPIVGIANYAQRFKGRVTITADESTSTTYMELSSLRSEDTAVYYCASTLGLVLDAMDYWGQGTLVTVSS
VL: ETVLTQSPGTLSLSPGERATLSCRASQSLGSSYLAWYQQKPGQAPRLLIYGASSRAPGIPDRFSGSGSGTDFTLTISRLEPEDFAVYYCQQYADSPITFGQGTRLEIK
notes: GC1008 IgG4 variant
Regarding B13, the values for the kd var/kd wt in assay [1], in assay [2] and in assay [3] were 1.4, 1.5 and 1.1, respectively.

B14: V55W (antibody, V domains shown)
VH: QVQLVQSGAEVKKPGSSVKVSCKASGYTFSSNVISWVRQAPGQGLEWMGGVIPIWDIANYAQRFKGRVTITADESTSTTYMELSSLRSEDTAVYYCASTLGLVLDAMDYWGQGTLVTVSS
VL: ETVLTQSPGTLSLSPGERATLSCRASQSLGSSYLAWYQQKPGQAPRLLIYGASSRAPGIPDRFSGSGSGTDFTLTISRLEPEDFAVYYCQQYADSPITFGQGTRLEIK
notes: GC1008 IgG4 variant
Take B14: the kd var/kd wt stood at 1.3 in assay [2] and 2.1 in assay [3].

B15: D56K (antibody, V domains shown)
VH: QVQLVQSGAEVKKPGSSVKVSCKASGYTFSSNVISWVRQAPGQGLEWMGGVIPIVKIANYAQRFKGRVTITADESTSTTYMELSSLRSEDTAVYYCASTLGLVLDAMDYWGQGTLVTVSS
VL: ETVLTQSPGTLSLSPGERATLSCRASQSLGSSYLAWYQQKPGQAPRLLIYGASSRAPGIPDRFSGSGSGTDFTLTISRLEPEDFAVYYCQQYADSPITFGQGTRLEIK
notes: GC1008 IgG4 variant
As to B15, the kd var/kd wt in assay [1] stood at 1.1; in assay [2] it was 1.3; in assay [3], 0.7.

B16: D56F (antibody, V domains shown)
VH: QVQLVQSGAEVKKPGSSVKVSCKASGYTFSSNVISWVRQAPGQGLEWMGGVIPIVFIANYAQRFKGRVTITADESTSTTYMELSSLRSEDTAVYYCASTLGLVLDAMDYWGQGTLVTVSS
VL: ETVLTQSPGTLSLSPGERATLSCRASQSLGSSYLAWYQQKPGQAPRLLIYGASSRAPGIPDRFSGSGSGTDFTLTISRLEPEDFAVYYCQQYADSPITFGQGTRLEIK
notes: GC1008 IgG4 variant
On to B16, for which the kd var/kd wt in assay [1] was 2.3; in assay [2] it was 1.5; in assay [3], 1.5.

Values taken from US20170342144A1 (Sanofi, published 2017).
